Measured values reported in article PMC6386705.

Key:
[1] = molecular target: HuR RRM3 (residues 241 to 326) (human), Q15717; assay: NMR 15N relaxation; settings: remark: other sources report otherwise
[2] = molecular target: HuR RRM3 (residues 241 to 326) (human), Q15717; assay: ITC; settings: remark: other sources report otherwise

B1: HuR RRM3 (residues 241 to 326), Q15717 241-326 (domain or fragment)
chain: SSGWCIFIYNLGQDADEGILWQMFGPFGAVTNVKVIRDFNTNKCKGFGFVTMTNYEEAAMAIASLNGYRLGDKILQVSFKTNKSHK
B1 was tested, and the stoichiometry N [1] was 2 and the Kd [2] was 31.7 µM.
